According to patent publication US20240327502A1 (Merck Sharp & Dohme, published 2024):

Tests used:
hMPV PostF trimer = target: T1, hMPV PostF trimer (human metapneumovirus, strain B2); assay: BLI, mAb on anti-human Fc sensor
T1 construct: also called MPV PostF (dPFv1)

[1] = target: T2, Unprocessed hMPV PreF trimer (human metapneumovirus, strain B2); assay: BLI, mAb on anti-human Fc sensor
T2 construct: also called Unprocessed hMPV WT PreF trimer; unprocessed hMPV PreF trimeric antigen

[2] = target: T3, Processed stabilized hMPV PreF trimer (115BV) (human metapneumovirus, strain B2); assay: BLI, ratio to unprocessed PreF trimer
T3 construct: also called Processed hMPV PreF trimer; processed PreF

[3] = target: T3, Processed stabilized hMPV PreF trimer …; assay: BLI, mAb on anti-human Fc sensor

B1: M3E05 (antibody, V domains shown)
VH: EVQLVESGGSVIQPGGSLRLSCAASGFSVRTNYMNWVRQAPGKGLEWVSVIYSDGRTYYSDSVKGRFTISRDNSMNNVFLQMNSLRAEDTAVYYCARDPTFYSSSWWYLDHWGQGTQVTVSS
VL: SYELTQALSVSVARGQTAKITCGGNNIGVRNVHWYQQKPGQAPVLVIYRDNIRPSGIPERFSGSNSGNMAALTISSAQEGDEADYYCQVWDSNTAHVIFGGGTKLTVL
notes: IgG
B1 was tested, and the Octet binding response (hMPV PostF trimer) was 0.509 nm and the Octet binding response [1] was 0.126 nm.

B2: M3A11 (antibody, V domains shown)
VH: EVQLVESGGGLVQPGGSLRLSCAASGFTFSDYSMNWVRQAPGQGLEWISYISSTGSTIYYADSVRGRFTISRDNAKNSLYLQMNTLRAEDTAVYYCARGKTTVTIWFDPWGQGTLVTVSS
VL: SYVLTQPPSVSVAPGQTARITCGGNNIGSKSVHWYQQKPGQAPVLVVYDDSDRPSGIPERFSGSNSGNTATLTISRVEAGDEADYYCQVWHSSSDWVFGGGTRLTVL
notes: IgG
With B2 the Octet binding response (hMPV PostF trimer) was 0.414 nm.

B3: M1C7 (antibody, V domains shown)
VH: QVQLVESGGGLVQPGRSLRLSCAASGFTFSSYAMHWVRQAPGKGLEWVAIITYDGSGKYYADSLEGRITISRDDPKSMLYLHMRSLTAEDTAVYYCVKSGSFSSAFWLEDWGQGTLVTVSS
VL: EIVLTQSPATLSLSPGERATLSCRASQSISNFVAWYQQKPGQAPRLLIYDASNGATGTPARFSGSGSGTDFTLTISSLEPEDFAVYYCQQRSTWTFGQGTKVEIKR
notes: IgG; also called MIC7
In the case of B3, the “processed/unprocessed PreF trimer binding ratio” value [2] is reported as 1.15, the Octet binding response [3] is reported as 0.359 nm and the Octet binding response (hMPV PostF trimer) is reported as 0.0541 nm. The Octet binding response [1] was 0.312 nm.

B4: M2C06 (antibody, V domains shown)
VH: QVQLVQSGAEVKKPGSSVKVSCRPSGGTFSNDILSWVRQAPGQRLEWMGRIIPLVNMTNIAQKFQGRLTLVADKSTAIVHLELGSLRAEDTAIYYCVRDLPSAGFPAPFDIWGQGTRVTVSA
VL: EIVLTQSPGSLSLSPGARATVSCRASQSLNSASLVWYQQRVGQAPRLLMFGASNRATGIPDRFSGSGSGTDFTLTISRLEPEDFAVYYCQQYAFSPPTFGQGTKVEIK
notes: IgG
For B4, the “processed/unprocessed PreF trimer binding ratio” value [2] was 1.16, the Octet binding response [3] was 0.472 nm and the Octet binding response (hMPV PostF trimer) was 0.436 nm. It also gave an Octet binding response [1] of 0.408 nm.

B5: M2C08 (antibody, V domains shown)
VH: QVQLVQSGAEVKKPGASVIVSCRASGFTFSLYTMHWVRQAPGQGLEWMGWISADNSNTKYSQKYQDRVTITMDTSATTLFMEISSLRSEDTAVYYCTRGPAYYFDSSGFAFDIWGQGTLVTVSS
VL: EIVLTQSPGTLSLSPGERATLSCRASQSVSRTYLGWYQQRPGLAPRLLIYGTSSRATGIPDRFSGSGSGTDFTLTISRLEPEDFATYYCQHFGSSLTFGGGTKVEIK
notes: IgG
B5 was tested, and the “processed/unprocessed PreF trimer binding ratio” value [2] was 0.38, the Octet binding response [3] was 0.157 nm and the Octet binding response (hMPV PostF trimer) was -0.0185 nm. The Octet binding response [1] was 0.415 nm.

B6: M3D08 (antibody, V domains shown)
VH: QVQLQESGPGLVKPSETLSLTCSVSGVSISSHYWSWIRQPAGKGLEWIGRLYTSGTTTYNPSLNSRVTMSVDTTNNRLSLRLTSVTAADTAVYYCARDVRLTVFGALHNWFDPWGQGILVTVSS
VL: DIQMTQSPSSLSASVGDRVTITCRASQSIGTHLNWYQQQRGRAPKLLVYAASGLQSGVPSRFSGSGSGTYFTLTISSLQPEDFATYYCQQSYSTPSITFGQGSRLDIK
notes: IgG
For B6, the “processed/unprocessed PreF trimer binding ratio” value [2] was 0.17, the Octet binding response [3] was 0.0113 nm and the Octet binding response (hMPV PostF trimer) was 0.307 nm.

B7: M4B03 (antibody, V domains shown)
VH: QVQLVQSGAEVKKPGASVKVSCKASGYIFSNYRMHWVRQAPGQRLEWMGWITAGSGNTRYSEQFQGRVAFTSDTDATTVSMELSGLRFEDTAVYFCAREYNWNDAFPYWGQGTLVIVSS
VL: SYVLTQPPSVSVAPGQTARIPCGGNNIGSKSVHWYQQKSGRAPVLVVYDDSDRPPGIPDRFSGSNSGNTATLTINKIEAGDEADYYCHVSDDNSDHVFFGGGTQLTVL
notes: IgG
In the case of B7, the “processed/unprocessed PreF trimer binding ratio” value [2] is reported as 0.33, the Octet binding response [3] is reported as 0.108 nm and the Octet binding response (hMPV PostF trimer) is reported as -0.061 nm. For the same binder, the Octet binding response [1] was 0.324 nm.

B8: M2C11 (antibody, V domains shown)
VH: QVQLVQSGAEVRKPGASVKVSCKASGYTFTSHDINWVRQAPGQGLEWMGWMNPNSDTTGYAQKFQGRVTMARDISMSTAYMELSSLTSEDTAVYYCARGRHNYYTNGPTRDGFDIWGQGTMVTVSS
VL: SYELTQPPSVSVSPGQTATITCSGDDLGNQYANWFQQRPGQSPVLVIYQDNKRPSGIPERFSGSSSGNTATLTISGTQPLDEADYYCQAWDSRTYVFGTGTKVTVL
notes: IgG
B8 was tested, and the “processed/unprocessed PreF trimer binding ratio” value [2] was 1.04, the Octet binding response [3] was 0.362 nm and the Octet binding response (hMPV PostF trimer) was -0.03 nm. For the same binder, the Octet binding response [1] was 0.349 nm.

B9: M3A05 (antibody, V domains shown)
VH: QITLKESGPTLVKPTQTLTLTCTFSGFSLNTGGVSVGWIRQPPGKALEWLALIYWDGDKRYSPSLKSRLTITKDTSKNQVVFTMTNMDPVDTATYYCAHRENSAYIDFWGQGTLVTVSS
VL: QSVLTQPPSVSAAPGQKVTISCSGSSSNIGNNYVSWYQQLPGAAPKLLIYDNNKRPSGIPDRFSGSKSGTSASLGITGLQTGDEADYYCGTWDSSLSVGFYVFGTGTKVTVL
notes: IgG
With B9 the “processed/unprocessed PreF trimer binding ratio” value [2] was 0.09, the Octet binding response [3] was 0.0071 nm and the Octet binding response (hMPV PostF trimer) was 0.229 nm.

B10: M4A10 (antibody, V domains shown)
VH: QVQLVQSGAEVKKPGASVKVSCKASGYTFNGHYLHWVRQAPGQGLEWMGWINPNSGGTDYAQRFQGRVTMTRGTSISTAYMELSRLTSDDTAVYFCARDNFGFWSASSGRHNWLDSWGQGTLVIVSS
VL: NFMLTQPHSVSESPGKTVTISCTRSTGNIASNYVQWYQQRPGSSPTTVIYEDNQRPSAVPDRFSGSIDSSSNSASLTVSGLRTEDEADYYCQSYDSGHHVVFGGGTKLTVL
notes: IgG
B10 was tested, and the “processed/unprocessed PreF trimer binding ratio” value [2] was 0.71, the Octet binding response [3] was 0.23 nm and the Octet binding response (hMPV PostF trimer) was -0.0388 nm. It also gave an Octet binding response [1] of 0.325 nm.

B11: M2C05 (antibody, V domains shown)
VH: EVQLLESGGGLVQPGGSLRLSCAGSGFTFSNYAMSWVRQAPGKGLEWVSDINDRGETTHYADSVKGRFTISRDNSKKKLFLQMNDLRAEDTAIYYCTRAYVVLSVYAPKGFDYWGQGTLVSVSS
VL: DIQMTQSPSILSASEGDRVTITCRASQSVSNWLAWYQQKSGRAPKLLIYKASSLETGVPSRFSGSGSGTEFTLTINNLQPDDFATYYCQHYNGYPYTFGQGTKLEIK
notes: IgG
With B11 the “processed/unprocessed PreF trimer binding ratio” value [2] was 1.16, the Octet binding response [3] was 0.464 nm and the Octet binding response [1] was 0.399 nm.

B12: M2C01 (antibody, V domains shown)
VH: EVQLVESGGDLAKPGGSLRLSCEASGFTFSNAWMSWVRQAPGKGLEWVGQIKPHTDGATTDYAAPVKGRFTISRDDSKSTLYLRMNILRIEDTAMYYCTTGPRLSLMWGQGTRVTVSS
VL: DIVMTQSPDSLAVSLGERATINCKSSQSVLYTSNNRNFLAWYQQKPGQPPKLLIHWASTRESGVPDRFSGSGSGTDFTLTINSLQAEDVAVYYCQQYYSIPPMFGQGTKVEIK
notes: IgG
In the case of B12, the Octet binding response (hMPV PostF trimer) is reported as -0.0726 nm and the Octet binding response [1] is reported as 0.107 nm.

B13: M2B05 (antibody, V domains shown)
VH: QVQLQQWGAGLLRPSETLSLTCTVYGGSFGGYHWSWIRQSPGKGLEWIGEIDHGGNTNFNPSLKSRVTISVDRSKKQFSLKLTSVTAADTAVYYCARGFGVVINNWFDPWGQGTLVTVSS
VL: DIQMTQSPSSLSASVGDRVTITCRASQTINSYLNWYQQKPGKAPTLLIYTVSSLQSGVPSRFSGSGSGTVFSLTISSLQPEDFATYYCQQSYNSPYTFGQGTKLEIK
notes: IgG
B13 gave an Octet binding response [3] of 0.542 nm, an Octet binding response (hMPV PostF trimer) of 0.486 nm and an Octet binding response [1] of 0.447 nm.

B14: M3C01 (antibody, V domains shown)
VH: QLQLQESGPGLVKPSETLSLTCTVSGGSISSSSYFWGWIRQPPGKGLEWIGSVFYSGSTYYNPSLKSRVTISVDTPKNQFSLRLSSVTAADTAVYYCARHSWDRWVYWGQGTLVTVSS
VL: DIQMTQSPSSVSASVGDRVTITCRASQDISSWLAWYQQKPGKAPKLLIYAASSLQSGVPSRFSGSGSGTDFTLTISSLQPEDFATYYCQQANSFPLTFGGGTKVEIK
notes: IgG
For B14, the Octet binding response (hMPV PostF trimer) was 0.327 nm and the Octet binding response [1] was 0.0597 nm.

B15: M3C06 (antibody, V domains shown)
VH: QVQLVQSGAEVKKPGSSVKVSCKAYGGTLSNYAISWVRQAPGQGLHWMGRIIPVMNVANYADNFQGRVTITADKSTSTAYMELSSLRSEDAAIYYCATARGLGSLEGGDAFDVWGQGTMLTVSS
VL: DIVMTQSPDSVAVSLGERATISCKSSLSLLYSSNNKNYLVWYQQKPGQPPKLLFYWASTRESGVPDRFSASGSGTDFTLTISSLQAEDVAVYYCQQYYSTPITFGQGTRLEIR
notes: IgG
For B15, the “processed/unprocessed PreF trimer binding ratio” value [2] was 0.93, the Octet binding response [3] was 0.195 nm and the Octet binding response (hMPV PostF trimer) was -0.0338 nm. For the same binder, the Octet binding response [1] was 0.208 nm.

B16: M3E06 (antibody, V domains shown)
VH: EVQLVESGGGLVQPGGSLRLSCAASGFTFSSYWMSWVRQAPGKGLEWVANIKQDGSEKYYVDSVKGRFTISRDNAKNSLYLQMNSLRAEDTAVYYCARYYYDSSGYYYYYYYYMDVWGKGTTVTVSS
VL: not shown
notes: IgG
With B16 the “processed/unprocessed PreF trimer binding ratio” value [2] was 0.18, the Octet binding response [3] was 0.0101 nm and the Octet binding response (hMPV PostF trimer) was 0.329 nm.

B17: M2D08 (antibody, V domains shown)
VH: QVQLVESGGGVVQPGRSLRLSCAASGFVFRFSGMHWIRQAPGKGLQWVAHISDDGSQKYYADSVTGRFAISRDNSRNTLFLEMTGLRGDDTAVYYCARGDYGVSYFLAHWGLGELVIVSS
VL: EIVLTQSPATLSLSPGERATLSCRASQNIYNYLAWYQQKPGQAPRLVIYDASNRATGIPARFSGSGSETDFTLTISSLEPEDFAVYYCQQRSDWTFGQGTKLEIK
notes: IgG
With B17 the “processed/unprocessed PreF trimer binding ratio” value [2] was 0.44, the Octet binding response [3] was 0.182 nm and the Octet binding response (hMPV PostF trimer) was -0.0414 nm. For the same binder, the Octet binding response [1] was 0.416 nm.

B18: M2B11 (antibody, V domains shown)
VH: QVQLVQSGTEVKKPGASVKVSCKASGYTFTSHDINWLRQATGQGLEWLGWMNPNSATTGYAQKFQGRVTLTRDISISTAYMELSSLRSDDTAVYYCARNRHYYYADGPTRDAFDIWGQGTVVTVSS
VL: SYELTQTPTVSVSPGQTASITCSGDELGHKYTSWYQQKPGQSPVLVVYQDTKRPSGIPERFSGSNSGNTATLTISGTQVMDEADYYCQAWDSGTVLLGGGTKLTVL
notes: IgG
For B18, the “processed/unprocessed PreF trimer binding ratio” value [2] was 1.31, the Octet binding response [3] was 0.498 nm and the Octet binding response (hMPV PostF trimer) was -0.0289 nm. It also gave an Octet binding response [1] of 0.38 nm.
